This note sets out measurements from US20260242485A1 (LEPU BIOPHARMA, published 2026).

In test [1] the target is T1, hCD16A-158V-his protein (human, UniProt P08637 17-208).
T1 construct: extracellular domain; Bought protein; also called human CD16A-158V-his; Human CD16A-158V (protein)
As to the kind of experiment: ELISA, plate-coated his-tagged antigen 2 ug/mL. As to the method: (§1) In order to determine the binding ability of the chimeric Abs to human CD16A protein, ELISA-based binding assay was performed as followed. […] The mixture was incubated for 1 hour at room temperature (RT). The primary antibody was recognized by a detective antibody against human IgG Fc which was conjugated with horseradish peroxidase (HRP) (Jackson Immuno, Cat. No. 109-035-008). Tetramethylbenzidine (TMB), a substrate of HRP, was added to the wells to visualize the binding signal. After sufficient color development, stop solution was added to the wells. The absorbance of the signal was detected at 450 nm with Envision multilabel plate readers (PerkinElemer). The graph and statistics analysis were generated with four-parameter nonlinear regression curve fit in Graphpad Prism 9 software.
(§2) In order to determine the cross reactivity of the chimeric Abs to cynomolgus CD16, ELISA binding assay was performed as described above. Recombinant cyno CD16 ECD his tag protein (cynoCD16-his, Acro Bio, Cat. No. FC6-C52H9) was used as the coating antigen at 2 μg/mL.

The target of test [2] is T2, hCD16A-158F-his protein (human, UniProt P08637 17-208).
T2 construct: Bought protein
T2 sequence (P08637 17-208 limits assumed): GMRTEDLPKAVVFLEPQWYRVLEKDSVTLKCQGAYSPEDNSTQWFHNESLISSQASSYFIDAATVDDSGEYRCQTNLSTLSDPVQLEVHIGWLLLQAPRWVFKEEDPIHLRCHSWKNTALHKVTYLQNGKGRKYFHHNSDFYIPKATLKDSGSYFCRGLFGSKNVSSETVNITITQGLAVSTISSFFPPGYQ
As to the kind of experiment: ELISA, plate-coated his-tagged antigen 2 ug/mL. The method, then: as §1, §2
In general terms: In an ELISA, binding on a coated surface is turned into a signal by an enzyme label.

Test [3] addresses T3, human CD16A-158V expressed on CHO-K1 cells (human, UniProt P08637 17-254).
T3 construct: whole, on cells; also called hCD16A-158V; CHO-K1-hCD16A-158V
As to the kind of experiment: flow cytometry on antigen-expressing CHO-K1 cells. The method, then:
(§3) In order to evaluate the binding activity of the chimeric mAbs to human CD16A expressed on cells, cell-based binding assay was employed as followed. […] The antibody dilutions were incubated with 1×10⁵ indicated cells in the 96-well microplate for one hour at 4° C. The antibodies binding to the antigen on the cell surface were detected with PE fluorophore-conjugated anti-human IgG Fc secondary antibodies (ThermoFisher scientific, Cat. No. 12-4998-82) at a dilution rate of 1:1000. Cells were analyzed by flow cytometer LSRFortessa Cell Analyzer (BD Biosciences). Data were analyzed with Flowjo 10.0 software. The graph and statistics analysis were generated with four-parameter nonlinear regression curve fit in Graphpad Prism 9 software.
(§4) CHO-K1 cells stably expressing cynomolgus CD16 were used in the following test.
In general terms: In flow cytometry, cells or beads pass a laser one at a time.

Test [4] deals with T4, human CD16A-158F expressed on CHO-K1 cells (human, UniProt P08637 17-254).
T4 construct: whole, on cells
T4 sequence (P08637 17-254): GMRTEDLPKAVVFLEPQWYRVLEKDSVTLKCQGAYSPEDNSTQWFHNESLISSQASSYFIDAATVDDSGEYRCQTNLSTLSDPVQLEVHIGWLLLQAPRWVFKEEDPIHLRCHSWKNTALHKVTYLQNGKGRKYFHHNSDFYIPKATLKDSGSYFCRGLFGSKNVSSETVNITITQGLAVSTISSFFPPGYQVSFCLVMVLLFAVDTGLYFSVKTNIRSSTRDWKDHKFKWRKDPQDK
As to the kind of experiment: flow cytometry on antigen-expressing CHO-K1 cells. The method, then:
as §3, §4

For test [5], the target named is T5, human CD16B-NA1 ECD his tag protein (human, UniProt O75015 17-200).
T5 construct: extracellular domain; Bought protein; also called hCD16B-NA1-his; hCD16B-NA1 protein
T5 sequence (O75015 other isoform, or with tags, fused parts or gaps limits assumed): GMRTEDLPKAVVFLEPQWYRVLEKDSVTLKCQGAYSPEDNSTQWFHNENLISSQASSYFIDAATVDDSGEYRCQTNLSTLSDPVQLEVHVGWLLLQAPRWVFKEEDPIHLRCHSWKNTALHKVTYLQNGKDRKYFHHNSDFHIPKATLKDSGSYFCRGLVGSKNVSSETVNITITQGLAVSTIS
As to the kind of experiment: ELISA, hCD16B-NA1-his coated at 2 ug/mL, OD450. As to the method: as §1
(§5) In order to determine the binding ability of the chimeric Abs to human CD16B protein, ELISA binding assay was performed as previously described. Three spliced isoforms of CD16B including human CD16B-NA1 ECD his tag protein (hCD16B-NA1-his, Acro Bio, Cat: No. CDB-H5227), human CD16B-NA2 ECD his tag protein (hCD16B-NA2-his, Acro Bio, Cat: No. CDB-H82Ea) and human CD16B-SH-his protein, were used as the coating antigens at 2 μg/mL.

Test [6] has as its target T6, human CD16B-NA2 ECD his tag protein (human, UniProt O75015 17-200).
T6 construct: extracellular domain; Bought protein; also called hCD16B-NA2-his; hCD16B-NA2 protein
As to the kind of experiment: ELISA, hCD16B-NA2-his coated at 2 ug/mL, OD450. As to the method:
as §1, §5

For test [7], the target named is T7, human CD32B expressed on CHO-K1 cells (human, UniProt P31994 43-310).
T7 construct: whole, on cells; also called hCD32B
T7 sequence (looked up): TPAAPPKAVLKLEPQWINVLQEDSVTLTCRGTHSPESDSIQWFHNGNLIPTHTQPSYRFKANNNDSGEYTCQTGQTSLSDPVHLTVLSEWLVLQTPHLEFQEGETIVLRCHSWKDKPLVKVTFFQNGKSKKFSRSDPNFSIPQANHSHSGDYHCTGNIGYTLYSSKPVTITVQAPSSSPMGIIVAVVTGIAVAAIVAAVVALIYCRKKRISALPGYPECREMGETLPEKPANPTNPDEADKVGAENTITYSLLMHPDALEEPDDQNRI
As to the kind of experiment: flow cytometry, CHO-K1-hCD32B cells, geometric mean. The method, then:
as §3
(§6) To exclude the non-specific binding of the CD16A chimeric antibody to human CD16B and CD32B expressed on cells, cell-based binding assay was performed as described above. Firstly, CHO-K1 cells were stably transferred with one human CD16B spliced isoform hCD16B-NA1 and human CD32B. Then, the cells were incubated with the indicated concentrations of CD16A chimeric antibodies.

Test [8] has as its target T8, human CD16B-NA1 expressed on CHO-K1 cells (human, UniProt O75015 17-200).
T8 construct: whole, on cells; also called hCD16B-NA1; CHO-K1-hCD16B-NA1
As to the kind of experiment: flow cytometry, CHO-K1-hCD16B-NA1 cells, geometric mean. As to the method: as §3, §6

Test [9] deals with T1, hCD16A-158V-his protein. As to the kind of experiment: SPR (Biacore 8K), antibody captured on Protein A chip, antigen at 50 nM. As to the method:
(§7) The binding affinity of the chimeric antibodies to human CD16A was determined with Biacore™. Briefly, the antibodies were captured with a Protein A chip. […] The antigen was allowed to dissociate for 500 s. The experiment was carried out on a Biacore™ 8K. Data analysis was carried out using Biacore™ 8K evaluation software.
A general note: SPR reads the build-up and loss of mass on a sensor chip optically.

The target of test [10] is T2, hCD16A-158F-his protein. The description is as above. The method, then: as §7

T1 sequence (P08637 17-208 F176V): as the sequence (P08637 17-208 limits assumed) above, with F160V counted along it
T6 sequence (O75015 17-200 N65S limits assumed): as the sequence (O75015 other isoform, or with tags, fused parts or gaps limits assumed) above, with R20S, N49S, D66N, V90I counted along it
T8 sequence (O75015 other isoform, or with tags, fused parts or gaps): as the sequence (O75015 other isoform, or with tags, fused parts or gaps limits assumed) above
T3 sequence (P08637 17-254 F176V): as the sequence (P08637 17-254) above, with F160V counted along it

B1: 23H7E4-hIgG1 LALAPG (antibody)
heavy: QVQLQQPGAELVRPGASVKLSCKASGYTFTSYWLNWVKQRPGQGLEWIGMIDPSDSETHYNQVFKDKATLTVDKSSTTAYMQLSSLTSEDSAVYYCARWMVTKKTFDYWGQGTTLTVSSASTKGPSVFPLAPSSKSTSGGTAALGCLVKDYFPEPVTVSWNSGALTSGVHTFPAVLQSSGLYSLSSVVTVPSSSLGTQTYICNVNHKPSNTKVDKKVEPKSCDKTHTCPPCPAPEAAGGPSVFLFPPKPKDTLMISRTPEVTCVVVDVSHEDPEVKFNWYVDGVEVHNAKTKPREEQYNSTYRVVSVLTVLHQDWLNGKEYKCKVSNKALGAPIEKTISKAKGQPREPQVYTLPPSREEMTKNQVSLTCLVKGFYPSDIAVEWESNGQPENNYKTTPPVLDSDGSFFLYSKLTVDKSRWQQGNVFSCSVMHEALHNHYTQKSLSLSPGK
light: DIVLTQSPASLAVSLGQRATISCRASESVEYYGPSLMQWYQQKPGQPPKLLIYAASNVESGVPARFSGSGSGTDFSLNIHPVEEDDIAMYFCQQSRKVPYTFGGGAKLEIKRTVAAPSVFIFPPSDEQLKSGTASVVCLLNNFYPREAKVQWKVDNALQSGNSQESVTEQDSKDSTYSLSSTLTLSKADYEKHKVYACEVTHQGLSSPVTKSFNRGEC
notes: also called 23H7E4 chimeric Ab
For B1, the EC50 (in general, the concentration needed to bring the measured effect to its halfway point) in [1] amounted to 130 pM; in [2], 440 pM; in test [3] it was 800 pM; in [4], 770 pM. The binding result in test [5] is given as “no binding (tested: 20 nM)”; in test [6] it was “no binding (tested: 20 nM)”; in test [7], “no binding (tested: 100 nM)”; in test [8] it was “no binding (tested: 100 nM)”. The Kd (in general, the concentration at which binding is half-saturated) in test [9] stood at 3810 pM; in test [10] it was 2450 pM. Besides, the koff (commonly the first-order rate constant of dissociation) in test [9] is 0.0107 s⁻¹; in test [10], 0.00772 s⁻¹. In addition, the kon (in general, the second-order rate constant of association) in test [9] was 2.81e+06 M⁻¹ s⁻¹; in test [10], 3.16e+06 M⁻¹ s⁻¹.

B2: 37B3G11-hIgG1 LALAPG (antibody)
heavy: QVQLQQPGAELVRPGASVKLSCKASGYTFTTYWMNWVKQRPGQGLEWIGMIDPSDSETHYNQMFKDKATLTVDKSSSTAYMQLSSLTSEDSAVYYCAVPSLYNSNYRFAYWGQGTLVTVSAASTKGPSVFPLAPSSKSTSGGTAALGCLVKDYFPEPVTVSWNSGALTSGVHTFPAVLQSSGLYSLSSVVTVPSSSLGTQTYICNVNHKPSNTKVDKKVEPKSCDKTHTCPPCPAPEAAGGPSVFLFPPKPKDTLMISRTPEVTCVVVDVSHEDPEVKFNWYVDGVEVHNAKTKPREEQYNSTYRVVSVLTVLHQDWLNGKEYKCKVSNKALGAPIEKTISKAKGQPREPQVYTLPPSREEMTKNQVSLTCLVKGFYPSDIAVEWESNGQPENNYKTTPPVLDSDGSFFLYSKLTVDKSRWQQGNVFSCSVMHEALHNHYTQKSLSLSPGK
light: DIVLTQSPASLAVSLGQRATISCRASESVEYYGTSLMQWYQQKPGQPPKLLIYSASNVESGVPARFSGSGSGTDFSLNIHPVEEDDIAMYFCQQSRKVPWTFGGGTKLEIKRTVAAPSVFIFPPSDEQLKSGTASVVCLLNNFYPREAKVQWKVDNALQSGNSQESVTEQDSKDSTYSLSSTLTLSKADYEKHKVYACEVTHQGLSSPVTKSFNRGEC
notes: also called 37B3G11 chimeric Ab
For the molecule B2, the EC50 is 170 pM in test [1], 1200 pM in test [2], 680 pM in test [3] and 740 pM in [4]. For the same molecule, the binding result in test [5] was “no binding (tested: 20 nM)”; in [6], “no binding (tested: 20 nM)”; in test [7], “no binding (tested: 100 nM)”; in test [8], “no binding (tested: 100 nM)”. Moreover, the values for the Kd in [9] and in test [10] were 1260 pM and 1620 pM, respectively. Further, the koff in test [9] worked out at 0.00377 s⁻¹; in [10] it was 0.00531 s⁻¹. In addition, the kon came to 2.98e+06 M⁻¹ s⁻¹ in [9] and 3.27e+06 M⁻¹ s⁻¹ in test [10].
